Reference: patent US20040110231A1 (Takeda / Millennium, published 2004)
Residue numbers refer to the chain shown, from its start. Where no end group is shown, it is not given here. [ ]: non-standard residue; d: D form. Met(O) = CS(=O)CC[C@H](N)C(=O)O

B1: human GPR8 ligand (1-23) (peptide)
peptide: WYKHVASPRYHTVGRAAGLLMGL
B2: oxidized human GPR8 ligand (1-23) (peptide)
peptide: WYKHVASPRYHTVGRAAGLLXGL
modifications: Met (O) (methionine sulfoxide) at position 21
B3: oxidized porcine GPR8 ligand (1-23) (peptide)
peptide: WYKHTASPRYHTVGRAAGLL[Met(O)]GL
B4: [N-3-Indolepropanyl-Tyr2]-human GPR8 ligand (2-23) (peptide)
peptide: {3‑indolepropanoyl}-YKHVASPRYHTVGRAAGLLMGL
B5: Fmoc-human GPR8 ligand (1-23) (peptide)
peptide: XYKHVASPRYHTVGRAAGLLMGL
modifications: N-terminal Fmoc (N-9-fluorenylmethoxycarbonyl) on Trp1
B6: human GPR8 ligand (1-20) (peptide)
peptide: WYKHVASPRYHTVGRAAGLL
B7: human GPR8 ligand (2-23) (peptide)
peptide: YKHVASPRYHTVGRAAGLLMGL
B8: human GPR8 ligand (4-23) (peptide)
peptide: HVASPRYHTVGRAAGLLMGL
B9: human GPR8 ligand (1-19) (peptide)
peptide: WYKHVASPRYHTVGRAAGL
B10: [Nα-Acetyl-Trp1]-human GPR8 ligand (1-23) (peptide)
peptide: XYKHVASPRYHTVGRAAGLLMGL
modifications: Nα-acetyl on Trp1
B11: [D-Trp1]-human GPR8 ligand (1-23) (peptide)
peptide: XYKHVASPRYHTVGRAAGLLMGL
modifications: D-Trp at position 1
B12: human GPR8 ligand (9-23) (peptide)
peptide: RYHTVGRAAGLLMGL
B13: porcine GPR8 ligand (1-23) (peptide)
peptide: WYKHTASPRYHTVGRAAGLLMGL
B14: [N-Acetyl-Tyr2]-human GPR8 ligand (2-23) (peptide)
peptide: Ac-YKHVASPRYHTVGRAAGLLMGL
B15: human GPR8 ligand (1-18) (peptide)
peptide: WYKHVASPRYHTVGRAAG
B16: mouse homolog to hGPR8L (1-30) (peptide)
peptide: WYKHVASPRYHTVGRASGLLMGLRRSPYQW
notes: also called mouse homologue of the GPR8 ligand peptide (30 residues)
B17: porcine homolog to hGPR8L (1-30) (peptide)
peptide: B16 peptide with V5T, S17A, Q29M
notes: also called porcine homologue of the GPR8 ligand peptide (30 residues)
B18: rat homolog to hGPR8L (1-30) (peptide)
peptide: B16 peptide with Q29L
notes: also called rat homologue of the GPR8 ligand peptide (30 residues)
B19: mouse GPR8 ligand (1-23) (peptide)
peptide: WYKHVASPRYHTVGRASGLLMGL
notes: also called mouse homolog to hGPR8L (1-23)
B20: rat GPR8 ligand (1-23) (peptide)
peptide: WYKHVASPRYHTVGRASGLLMGL
notes: also called rat homolog to hGPR8L (1-23)
B21: human GPR8 ligand (1-30) (peptide)
peptide: B16 peptide with S17A, Q29L

Target: T1, human GPR7 (human, UniProt P48145 1-328)
T1 sequence: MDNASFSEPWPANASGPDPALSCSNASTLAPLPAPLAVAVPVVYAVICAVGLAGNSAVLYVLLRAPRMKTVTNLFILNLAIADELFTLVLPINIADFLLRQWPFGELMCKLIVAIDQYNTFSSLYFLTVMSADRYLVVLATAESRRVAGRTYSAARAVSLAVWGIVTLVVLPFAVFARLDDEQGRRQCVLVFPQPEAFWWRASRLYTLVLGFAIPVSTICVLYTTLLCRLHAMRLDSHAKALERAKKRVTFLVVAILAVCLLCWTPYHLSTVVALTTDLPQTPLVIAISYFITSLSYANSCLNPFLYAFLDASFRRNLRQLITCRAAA
Assay: cell-based or functional assay

Binder	intracellular cAMP production suppressing activity (IC50) [nM]
B1	0.025

Target: human GPR8 (human, UniProt P48146 1-333)
Sequence (P48146 whole entry): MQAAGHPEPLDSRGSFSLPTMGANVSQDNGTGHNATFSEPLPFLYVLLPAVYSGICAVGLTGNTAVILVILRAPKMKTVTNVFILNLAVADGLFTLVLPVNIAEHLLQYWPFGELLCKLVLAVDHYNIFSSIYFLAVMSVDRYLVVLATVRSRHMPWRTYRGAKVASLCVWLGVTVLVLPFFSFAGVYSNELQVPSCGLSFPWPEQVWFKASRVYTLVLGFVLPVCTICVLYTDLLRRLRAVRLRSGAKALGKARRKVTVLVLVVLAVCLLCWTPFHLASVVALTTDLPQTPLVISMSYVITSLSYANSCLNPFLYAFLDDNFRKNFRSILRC
Assay: cell-based or functional assay

Binder	GTPγ S binding promoting activity (EC50 nM) [nM]
B2	1.4
B3	0.73
B4	5
B5	240
B6	0.86
B7	3900
B8	6700
B9	1000
B10	14
B11	7.1
B12	4200
B13	1.5
B14	7200
B15	> 10000

Target: T1, human GPR7
Assay: competition with [125I-Tyr10]-hGPR8L (1-23) as tracer, membrane fraction of human GPR7-expressing CHO cells
Protocol: The thus prepared cell membrane fraction was diluted in various concentrations with an assay buffer (25 mM Tris-HCl, 5 mM EDTA, 0.05% CHAPS (3-[(3-choramidopropyl)dimethylammonio]-1-propanesulfonate), 0.1% BSA, 0.5 mM PMSF, 1 μg/ml pepstatin, 20 μg/ml leupeptin and 4 μg/ml E-64, pH 7.4). Then, a 200 μl aliquot of the dilution was dispensed into a propylene-made testing tube (Falcon 2053). In order to assay for the total binding, 2 μl of DMSO and 2 μl of 8 nM [¹²⁵I-Tyr¹⁰]-hGPR8L (1-23) was added to the membrane fraction solution. Also, the non-specific binding was assayed by adding 2 μl of a DMSO solution of 1 mM hGPR8L (1-23) and 2 μl of 8 nM [¹²⁵I-Tyr¹⁰]-hGPR8L (1-23) to the membrane fraction solution. After reacting at 25° C. for 75 minutes, the reaction solution was suction-filtrated through a polyethyleneimine-treated Whatman glass filter (GF-F), and the filter was washed twice with ˜1.5 ml of a wash buffer (25 mM Tris-HCl, 5 mM EDTA, 0.05% CHAPS, 0.1% BSA, pH 7.4). After the filtration, the residual radioactivity remained on the filter paper was measured with a γ-counter, and the specific binding was estimated by subtracting the non-specific binding from the total binding.
It could also be verified that the binding inhibition of [¹²⁵I-Tyr¹⁰]-hGPR8L (1-23) against the human GPR7-expressed CHO cell membrane fraction was noted as described above, when rat and mouse homologs (SEQ ID NO:73 and SEQ ID NO:91) to hGPR8L (1-23) and porcine, rat and mouse homologs (SEQ ID NO:57, SEQ ID NO:74 and SEQ ID NO:92) to hGPR8L (1-30).

Binder	binding result
B16	binds
B17	binds
B18	binds
B19	binds
B20	binds

Target: T1, human GPR7
Assay: cell-based or functional assay
Remark: another data set of the same source

Binder	GTPγS-Binding promoting activity (EC50 nM) [nM]
B2	1.6
B3	1.2
B4	0.85
B5	6.6
B6	0.88
B1	0.74
B7	7410
B8	> 10000
B9	84
B10	1.5
B11	2.3
B12	> 10000
B21	0.67
B13	0.35
B14	7000
B15	6200
